B1: Calcium/calmodulin-dependent protein kinase kinase 1 (Homo sapiens), Q8N5S9 (parent)
chain: MEGGPAVCCQDPRAELVERVAAIDVTHLEEADGGPEPTRNGVDPPPRARAASVIPGSTSRLLPARPSLSARKLSLQERPAGSYLEAQAGPYATGPASHISPRAWRRPTIESHHVAISDAEDCVQLNQYKLQSEIGKGAYGVVRLAYNESEDRHYAMKVLSKKKLLKQYGFPRRPPPRGSQAAQGGPAKQLLPLERVYQEIAILKKLDHVNVVKLIEVLDDPAEDNLYLVFDLLRKGPVMEVPCDKPFSEEQARLYLRDVILGLEYLHCQKIVHRDIKPSNLLLGDDGHVKIADFGVSNQFEGNDAQLSSTAGTPAFMAPEAISDSGQSFSGKALDVWATGVTLYCFVYGKCPFIDDFILALHRKIKNEPVVFPEEPEISEELKDLILKMLDKNPETRIGVPDIKLHPWVTKNGEEPLPSEEEHCSVVEVTEEEVKNSVRLIPSWTTVILVKSMLRKRSFGNPFEPQARREERSMSAPGNLLVKEGFGEGGKSPELPGVQEDEAAS
partner: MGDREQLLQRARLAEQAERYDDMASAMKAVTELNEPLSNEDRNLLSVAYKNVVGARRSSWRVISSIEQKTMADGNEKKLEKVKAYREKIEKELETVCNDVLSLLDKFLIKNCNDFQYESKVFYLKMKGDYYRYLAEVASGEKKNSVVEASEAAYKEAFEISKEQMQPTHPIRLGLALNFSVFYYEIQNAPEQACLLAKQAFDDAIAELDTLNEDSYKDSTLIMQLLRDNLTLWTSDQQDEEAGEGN

Variants of: B1
Conditions: with 1433f_human YWHAH

effect of a mutation on the interaction	Variant
decreasing interaction	S52A;T108A;S458A;S475A

Variants of: B1
Conditions: with 1433f_human YWHAH
Remark: another data set of the same source

effect of a mutation on the interaction	Variant
disrupting interaction	S475A
disrupting interaction	S74A

Variants of: B1
Conditions: with 1433f_human YWHAH
Remark: another data set of the same source

effect of a mutation on the interaction	Variant
disrupting interaction	S52A;S74A;T108A;S475A

Variants of: B1
Conditions: with 1433f_human YWHAH
Remark: another data set of the same source

effect of a mutation on the interaction	Variant
disrupting interaction	S52A;S74A;S458A;S475A

Reference: IntAct's records for PubMed 18242179
